What is called Kd is the equilibrium constant for the complex coming apart.

From patent US7919276 come the findings set out here.

Numbering of substitutions follows the chain as printed. Where two headings read alike, the source gives them in different places. Ends that are not written are not given here. Bounds are passed on as bounds.

Test [1] concerns the target T1, lysine-acetylated histone H4 peptide SGRGKGG-AcK-GLGK.
T1 chain: SGRGKGGKGLGK
The test is described as follows: NMR titration, 15N-HSQC chemical shift changes against ligand concentration. To be noted: remark: other sources report otherwise.

The target in test [2] is T2, lysine-acetylated histone H4 peptide SGRGKGG-AcK-GLGK.
T2 construct: also called H4 AcK-Peptide; AcK peptide
T2 peptide: SGRGKGGK(Ac)GLGK
Described as above.

Test [3] concerns the target T3, lysine-acetylated histone H4 peptide SGRGKGG-AcK-GLGK.
T3 construct: also called AcK peptide; AcK-containing H4 peptide
T3 peptide: SGRGKGGK(Ac)GLGK
Nature of the test: NMR titration, 15N-HSQC.

Test [4] has as its target T2, lysine-acetylated histone H4 peptide …. Nature of the test: NMR titration, 15N-HSQC chemical shift changes.

B1: P/CAF bromodomain Tyr802Ala mutant, Q92831 719-832 (protein)
chain: SKEPRDPDQLYSTLKSILQQVKSHQSAWPFMEPVKRTEAPGYYEVIRFPMDLKTMSERLKNRYYVSKKLFMADLQRVFTNCKEANAAESEYYKCANILEKFFFSKIKEAGLIDK
modifications: here or on the partner: acetyl-lysine (AcK) at Lys8
Turning to B1, the Kd in test [1] is over 10 mM.

B2: P/CAF bromodomain Val752Ala mutant, Q92831 719-832 (protein)
chain: B1 chain with V34A, A84Y
modifications: here or on the partner: acetyl-lysine (AcK) at Lys8
For B2, in test [1], the dissociation constant (Kd) was over 10 mM.

B3: P/CAF bromodomain Tyr760Ala mutant, Q92831 719-832 (protein)
chain: B1 chain with Y42A, A84Y
modifications: here or on the partner: acetyl-lysine (AcK) at Lys8
Consider B3, for which the Kd in test [1] was over 10 mM.

B4: P/CAF bromodomain (residues 719-832 of human p300/CBP-associated factor), wild-type (other)
chain: B1 chain with A84Y
notes: Expressed in E. coli with an N-terminal poly-His tag that thrombin removed; residues left over from the vector are not described; 15N-labelled for the NMR titration; also called hsp/CAF bromodomain; bromodomain of P/CAF
With B4, the Kd in test [2] is 0.346 mM.

B5: P/CAF bromodomain Tyr809Ala mutant (other)
chain: B1 chain with A84Y, Y91A
notes: Made by site-directed mutagenesis of the wild-type bromodomain construct
B5: the binding result in test [3] is reported as “no binding”.

B6: P/CAF bromodomain Tyr809Ala mutant (other)
chain: B1 chain with A84Y, Y91A
notes: Point mutant of the P/CAF bromodomain made by site-directed mutagenesis
For B6, in test [4], the binding result is on record as “no binding”.
